# Experimental data reported in publication PMC6176016 (2018).
# T1: FLAG-tagged multimerized MegaAPRIL
# T1 chain: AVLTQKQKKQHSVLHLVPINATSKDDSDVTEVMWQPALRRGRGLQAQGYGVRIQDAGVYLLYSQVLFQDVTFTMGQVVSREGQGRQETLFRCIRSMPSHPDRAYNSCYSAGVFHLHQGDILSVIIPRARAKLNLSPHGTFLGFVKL
# Key:
# [1] = target: T1, FLAG-tagged multimerized MegaAPRIL; assay: MST
# [2] = target: BAFF (as used in microscale thermophoresis) (UniProt Q9Y275 134-285); assay: MST
# Sequence of BAFF (as used in microscale thermophoresis) (Q9Y275 134-285): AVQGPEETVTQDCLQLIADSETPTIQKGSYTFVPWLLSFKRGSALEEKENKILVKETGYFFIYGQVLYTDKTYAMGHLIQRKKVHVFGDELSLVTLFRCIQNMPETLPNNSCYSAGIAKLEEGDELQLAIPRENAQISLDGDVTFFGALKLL
Binder,Kd [1],Kd [2]
"FLAG-tagged TACI-S, purified recombinant (receptor, fluorescently labeled at the N-terminus (Monolith NT Protein Labeling Kit RED-NHS)) MSGLGRSRRGGRSRVDQEERWSLSCRKEQGKFYDHLLRDCISCASICGQHPKQCAYFCENKLRSPVNLPPELRRQRSGEVENNSDNSGRYQGLEHRGSEASPALPGLKLSADQVALVYSTLGLCLCAVLCCFLVAVACFLKKRGDPCSCQPRSRPRQSPAKSSQDHAMEAGSPVSTSPEPVETCSFCFPECRAPTQESAVTPGTPDPTCAGRWGCHTRTTVLQPCPHIPDSGLGIVCVPAQEGGPGA",185 nM,586 nM
"FLAG-TACI-L (receptor, for MST only: fluorescently labeled at the N-terminus (Monolith NT Protein Labeling Kit RED-NHS)) MSGLGRSRRGGRSRVDQEERFPQGLWTGVAMRSCPEEQYWDPLLGTCMSCKTICNHQSQRTCAAFCRSLSCRKEQGKFYDHLLRDCISCASICGQHPKQCAYFCENKLRSPVNLPPELRRQRSGEVENNSDNSGRYQGLEHRGSEASPALPGLKLSADQVALVYSTLGLCLCAVLCCFLVAVACFLKKRGDPCSCQPRSRPRQSPAKSSQDHAMEAGSPVSTSPEPVETCSFCFPECRAPTQESAVTPGTPDPTCAGRWGCHTRTTVLQPCPHIPDSGLGIVCVPAQEGGPGA",567 nM,1080 nM
